Experimental findings from US20140243502 are described below.

In data set [1] the target is non-targeted mut-scFv-TAP (UniProt P17726).
For data set [2], the target named is recombinant tick anticoagulant peptide (rTAP) (UniProt P17726).
Data set [3] has as its system scFv anti-LIBS-TAP fusion protein.

Turning to factor Xa (fXa), the “cleavage of chromogenic substrate (spectrozyme FXa #222) by factor Xa, OD at 405 nm” value is “inhibition of factor Xa activity by rTAP, scFv anti-LIBS-TAP, and non-targeted mut-scFv-TAP, but not by scFv anti-LIBS” in data set [1]; “inhibition of factor Xa activity by rTAP, scFv anti-LIBS-TAP, and non-targeted mut-scFv-TAP, but not by scFv anti-LIBS” in data set [2]; “inhibition of factor Xa activity by rTAP, scFv anti-LIBS-TAP, and non-targeted mut-scFv-TAP, but not by scFv anti-LIBS” in data set [3].
